Results reported in article PMC3643854.

Experiments:
[1] = molecular target: HIV-1 AD8 gp41 W596L/K601H (HIV-1 AD8)
[2] = molecular target: HIV-1 AD8 gp41 W596L/K601H/D674E (HIV-1 AD8)
[3] = molecular target: HIV-1 AD8 gp120 surface glycoprotein; assay: Western blotting of pelleted virions (virion-associated gp120 normalised to p24); conditions: virions from 293T cells transfected with pAD8 proviral clones; virions were analysed at 48 h posttransfection; parent: 2.16
[4] = molecular target: HIV-1 AD8 gp120 surface glycoprotein; assay: immunoprecipitation of pulse-chase biosynthetically labelled Env from cell lysates (c) and supernatants (s), SDS-PAGE and phosphorimaging; conditions: transfected 293T cells; cellular Env was analysed 5 h post synthesis; parent: 1

Substance	neutralization of HIV-1 AD8 virus in TZM-bl cells (luciferase), C34 IC50 against that for WT virus (log10 decrease against WT) [1]	neutralization of HIV-1 AD8 virus in TZM-bl cells (luciferase), C34 IC50 against that for WT virus (log10 decrease against WT) [2]	other: gp120 pixels/p24 pixels [3]	ratio to parent [4]
C34 fusion inhibitor peptide	0.5	0.5	–	–
HIV-1 AD8 gp41 transmembrane glycoprotein, wild type W596L; K601H	–	–	0.93	3.37
HIV-1 AD8 gp41 transmembrane glycoprotein, wild type W596L; K601H; D674E	–	–	1.07	3.59
HIV-1 AD8 gp41 transmembrane glycoprotein, wild type WL/KH/DG	–	–	0.8	5.36
HIV-1 AD8 gp41 transmembrane glycoprotein, wild type WL/KH/DN	–	–	0.67	3.96
HIV-1 AD8 gp41 transmembrane glycoprotein, wild type ΔTW/WL/KH/DN	–	–	0.6	4.13
